Test results: patent US7078507 (US Dept. of Health and Human Services, dated 2006)
Changes are numbered by the printed parent chain.

T1: erythrocytes (red blood cells) carrying the EBA-175 receptor glycophorin A (human, UniProt P02724 20-150, sialic acid residues (removed by neuraminidase treatment in FIG. 12))
T1 construct: whole, on cells; The assays used whole erythrocytes; also called RBC; human RBCs
T1 sequence: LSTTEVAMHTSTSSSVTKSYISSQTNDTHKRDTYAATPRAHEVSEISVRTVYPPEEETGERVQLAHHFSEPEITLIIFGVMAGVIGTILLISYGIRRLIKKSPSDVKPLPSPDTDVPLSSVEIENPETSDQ

B1: Pichia pastoris-expressed recombinant EBA-175 region II (RII) protein, N-glycosylated (ligand)
chain: GRNTSSNNEVLSNCREKRKGMKWDCKKKNDRSNYVCIPDRRIQLCIVNLSIIKTYTKETMKDHFIEASKKESQLLLKKNDNKYNSKFCNDLKNSFLDYGHLAMGNDMDFGGYSTKAENKIQEVFKGAHGEISEHKIKNFRKKWWNEFREKLWEAMLSEHKNNINNCKNIPQEELQITQWIKEWHGEFLLERDNRSKLPKSKCKNNTLYEACEKECIDPCMKYRDWIIRSKFEWHTLSKEYETQKVPKENAENYLIKISENKNDAKVSLLLNNCDAEYSKYCDCKHTTTLVKSVLNGNDNTIKEKREHIDLDDFSKFGCDKNSVDTNTKVWECKKPYKLSTKDVCVPPRRQELCLGNIDRIYDKNLLMIKEHILAIAIYESRILKRKYKNKDDKEVCKIINKTFADIRDIIGGTDYWNDLSNRKLVGKINTNSNYVHRNKQNDKLFRDEWWKVIKKDVWNVISWVFKDKTVCKEDDIENIPQFFRWFSEWGDDYCQDKTKMIETLKVECKEKPCEDDNCKRKCNSYKEWISKKKEEYNKQAKQYQEYQKGNNYKMYSEFKSIKPEVYLKKYSEKCSNLNFEDEFKEELHSDYKNKCTMCPEVKDVPISIIRNNEQTS
modifications: about 1 of 5 putative N-glycosylation sites occupied (Man14-16GlcNAc2) when expressed in P. pastoris
notes: also called EBA-175 RII; P. pastoris derived EBA-175 RII protein
B2: Non-N-glycosylated EBA-175 RII protein (RII-N-Gly-) expressed in Pichia pastoris (ligand)
chain: B1 chain with N3Q, S50A, S195A, T206A, N400Q
notes: also called mutated RII protein; non-N-glycosylated RII

Tests used:
[1] = biological target: T1, erythrocytes (red blood cells) carrying …; test: erythrocyte binding assay
[2] = biological target: T1, erythrocytes (red blood cells) carrying …; test: erythrocyte binding assay with human RBCs with or without neuraminidase treatment, immunoblot read-out

Binder	binding result [1]	binding result [2]
B1	binds	
B2		binds
